From patent publication US20170275666A1, “Methods for Preparing Rebaudioside I and Uses” (The Coca-Cola Company, priority 2014, published 2017)

test: Directed evolution of UGT76G1, conversion of Rebaudioside D to Rebaudioside M (round 1); type: biochemical; settings: 0.5 mM Rebaudioside D, 2.5 mM UDP-Glucose, 100 μL fresh lysate, 30° C., pH 7.2
Source text: Starting from the amino acid sequence of UGT76G1, as is described in Genbank (AAR06912.1), different mutations at various amino acid positions were identified that could alter the activity of the enzyme for the transformation of Rebaudioside D (Reb D) to Rebaudioside M (Reb M). This list of mutations, designed by DNA2.0 ProteinGPS™ strategy, was subsequently used to synthesize 96 variant genes that contained 3, 4 or 5 of these mutations that were codon-optimized for expression in E. coli. The genes were subcloned in the pET30a+ plasmid and used for transformation of E. coli BL21 (DE3) chemically competent cells. The obtained cells were grown in Petri-dishes on solid LB medium in the presence of Kanamycin. Suitable colonies were selected and allowed to grow in liquid LB medium in tubes. Glycerol was added to the suspension as cryoprotectant and 400 μL aliquots were stored at −20° C. and at −80° C.
These storage aliquots of E. coli BL21(DE3) containing the pET30a+_UGT76G1var plasmids were thawed and added to LBGKP medium (20 g/L Luria Broth Lennox; 50 mM PIPES buffer pH 7.00; 50 mM Phosphate buffer pH 7.00; 2.5 g/L glucose and 50 mg/L of Kanamycine). This culture was allowed to shake in a 96 microtiter plate at 135 rpm at 30° C. for 8 h.
3.95 mL of production medium containing 60 g/L of Overnight Express™ Instant TB medium (Novagen®), 10 g/L of glycerol and 50 mg/L of Kanamycin was inoculated with 50 μL of above described culture. In a 48 deepwell plate the resulting culture was allowed to stir at 20° C. The cultures gave significant growth and a good OD (600 nm; 1 cm) was obtained. After 44 h, the cells were harvested by centrifugation and frozen.
Lysis was performed by addition of Bugbuster® Master mix (Novagen®) to the thawed cells and the lysate was recovered by centrifugation. Activity tests were performed with 100 μL of fresh lysate that was added to a solution of Rebaudioside D (final concentration 0.5 mM), MgCl2 (final concentration 3 mM) and UDP-Glucose (final concentration 2.5 mM) in 50 mM phosphate buffer pH 7.2.
The reaction was allowed to run at 30° C. and samples were taken after 2, 4, 7 and 24 h. to determine conversion and initial rate by HPLC (CAD detection) using the analytical method that was described above for the transformation of Rebaudioside D to Rebaudioside M. The results are depicted in the following table.

| Molecule | Conversion Reb D to Reb M after 24 h (%) | initial rate (Reb M area/min) |
| --- | --- | --- |
| UGT76G1var41: UGT76G1 variant, mutations L246F_A385T_K393G (protein, UniProt Q6VAB4 1-458, looked up, variant L246F A385T K393G) UDP-glycosyltransferase 76G1: MENKTETTVRRRRRIILFPVPFQGHINPILQLANVLYSKGFSITIFHTNFNKPKTSNYPHFTFRFILDNDPQDERISNLPTHGPLAGMRIPIINEHGADELRRELELLMLASEEDEEVSCLITDALWYFAQSVADSLNLRRLVLMTSSLFNFHAHVSLPQFDELGYLDPDDKTRLEEQASGFPMLKVKDIKSAYSNWQILKEILGKMIKQTKASSGVIWNSFKELEESELETVIREIPAPSFLIPFPKHLTASSSSLLDHDRTVFQWLDQQPPSSVLYVSFGSTSEVDEKDFLEIARGLVDSKQSFLWVVRPGFVKGSTWVEPLPDGFLGERGRIVKWVPQQEVLAHGAIGAFWTHSGWNSTLESVCEGVPMIFSDFGLDQPLNTRYMSDVLGVGVYLENGWERGEIANAIRRVMVDEEGEYIRQNARVLKQKADVSLMKGGSSYESLESLVSYISSL | 0.8 | 1.4E+06 |
| UGT76G1var47: UGT76G1 variant, mutations E229A_T284I_S389E (protein, UniProt Q6VAB4 1-458, looked up, variant E229A T284I S389E) UDP-glycosyltransferase 76G1: MENKTETTVRRRRRIILFPVPFQGHINPILQLANVLYSKGFSITIFHTNFNKPKTSNYPHFTFRFILDNDPQDERISNLPTHGPLAGMRIPIINEHGADELRRELELLMLASEEDEEVSCLITDALWYFAQSVADSLNLRRLVLMTSSLFNFHAHVSLPQFDELGYLDPDDKTRLEEQASGFPMLKVKDIKSAYSNWQILKEILGKMIKQTKASSGVIWNSFKELEESALETVIREIPAPSFLIPLPKHLTASSSSLLDHDRTVFQWLDQQPPSSVLYVSFGSISEVDEKDFLEIARGLVDSKQSFLWVVRPGFVKGSTWVEPLPDGFLGERGRIVKWVPQQEVLAHGAIGAFWTHSGWNSTLESVCEGVPMIFSDFGLDQPLNARYMEDVLKVGVYLENGWERGEIANAIRRVMVDEEGEYIRQNARVLKQKADVSLMKGGSSYESLESLVSYISSL | 4.8 | 2.7E+06 |
| UGT76G1var44: UGT76G1 variant, mutations I335V_S375R_I407V (protein, UniProt Q6VAB4 1-458, looked up, variant I335V S375R I407V) UDP-glycosyltransferase 76G1: MENKTETTVRRRRRIILFPVPFQGHINPILQLANVLYSKGFSITIFHTNFNKPKTSNYPHFTFRFILDNDPQDERISNLPTHGPLAGMRIPIINEHGADELRRELELLMLASEEDEEVSCLITDALWYFAQSVADSLNLRRLVLMTSSLFNFHAHVSLPQFDELGYLDPDDKTRLEEQASGFPMLKVKDIKSAYSNWQILKEILGKMIKQTKASSGVIWNSFKELEESELETVIREIPAPSFLIPLPKHLTASSSSLLDHDRTVFQWLDQQPPSSVLYVSFGSTSEVDEKDFLEIARGLVDSKQSFLWVVRPGFVKGSTWVEPLPDGFLGERGRVVKWVPQQEVLAHGAIGAFWTHSGWNSTLESVCEGVPMIFRDFGLDQPLNARYMSDVLKVGVYLENGWERGEVANAIRRVMVDEEGEYIRQNARVLKQKADVSLMKGGSSYESLESLVSYISSL | 35.3 | 2.3E+07 |
| UGT76G1var2: UGT76G1 variant, mutations S274G_T284I_L379G (protein, UniProt Q6VAB4 1-458, looked up, variant S274G T284I L379G) UDP-glycosyltransferase 76G1: MENKTETTVRRRRRIILFPVPFQGHINPILQLANVLYSKGFSITIFHTNFNKPKTSNYPHFTFRFILDNDPQDERISNLPTHGPLAGMRIPIINEHGADELRRELELLMLASEEDEEVSCLITDALWYFAQSVADSLNLRRLVLMTSSLFNFHAHVSLPQFDELGYLDPDDKTRLEEQASGFPMLKVKDIKSAYSNWQILKEILGKMIKQTKASSGVIWNSFKELEESELETVIREIPAPSFLIPLPKHLTASSSSLLDHDRTVFQWLDQQPPGSVLYVSFGSISEVDEKDFLEIARGLVDSKQSFLWVVRPGFVKGSTWVEPLPDGFLGERGRIVKWVPQQEVLAHGAIGAFWTHSGWNSTLESVCEGVPMIFSDFGGDQPLNARYMSDVLKVGVYLENGWERGEIANAIRRVMVDEEGEYIRQNARVLKQKADVSLMKGGSSYESLESLVSYISSL | 49.3 | 4.7E+07 |
| UGT76G1var42: UGT76G1 variant, mutations T263S_Q266S_R334H (protein, UniProt Q6VAB4 1-458, looked up, variant T263S Q266S R334H) UDP-glycosyltransferase 76G1: MENKTETTVRRRRRIILFPVPFQGHINPILQLANVLYSKGFSITIFHTNFNKPKTSNYPHFTFRFILDNDPQDERISNLPTHGPLAGMRIPIINEHGADELRRELELLMLASEEDEEVSCLITDALWYFAQSVADSLNLRRLVLMTSSLFNFHAHVSLPQFDELGYLDPDDKTRLEEQASGFPMLKVKDIKSAYSNWQILKEILGKMIKQTKASSGVIWNSFKELEESELETVIREIPAPSFLIPLPKHLTASSSSLLDHDRSVFSWLDQQPPSSVLYVSFGSTSEVDEKDFLEIARGLVDSKQSFLWVVRPGFVKGSTWVEPLPDGFLGERGHIVKWVPQQEVLAHGAIGAFWTHSGWNSTLESVCEGVPMIFSDFGLDQPLNARYMSDVLKVGVYLENGWERGEIANAIRRVMVDEEGEYIRQNARVLKQKADVSLMKGGSSYESLESLVSYISSL | 34.6 | 2.2E+07 |
| UGT76G1var46: UGT76G1 variant, mutations F22L_Q266E_I295M (protein, UniProt Q6VAB4 1-458, looked up, variant F22L Q266E I295M) UDP-glycosyltransferase 76G1: MENKTETTVRRRRRIILFPVPLQGHINPILQLANVLYSKGFSITIFHTNFNKPKTSNYPHFTFRFILDNDPQDERISNLPTHGPLAGMRIPIINEHGADELRRELELLMLASEEDEEVSCLITDALWYFAQSVADSLNLRRLVLMTSSLFNFHAHVSLPQFDELGYLDPDDKTRLEEQASGFPMLKVKDIKSAYSNWQILKEILGKMIKQTKASSGVIWNSFKELEESELETVIREIPAPSFLIPLPKHLTASSSSLLDHDRTVFEWLDQQPPSSVLYVSFGSTSEVDEKDFLEMARGLVDSKQSFLWVVRPGFVKGSTWVEPLPDGFLGERGRIVKWVPQQEVLAHGAIGAFWTHSGWNSTLESVCEGVPMIFSDFGLDQPLNARYMSDVLKVGVYLENGWERGEIANAIRRVMVDEEGEYIRQNARVLKQKADVSLMKGGSSYESLESLVSYISSL | 0.6 | 9.8E+05 |
| UGT76G1var43: UGT76G1 variant, mutations S241I_P272A_V279I (protein, UniProt Q6VAB4 1-458, looked up, variant S241I P272A V279I) UDP-glycosyltransferase 76G1: MENKTETTVRRRRRIILFPVPFQGHINPILQLANVLYSKGFSITIFHTNFNKPKTSNYPHFTFRFILDNDPQDERISNLPTHGPLAGMRIPIINEHGADELRRELELLMLASEEDEEVSCLITDALWYFAQSVADSLNLRRLVLMTSSLFNFHAHVSLPQFDELGYLDPDDKTRLEEQASGFPMLKVKDIKSAYSNWQILKEILGKMIKQTKASSGVIWNSFKELEESELETVIREIPAPIFLIPLPKHLTASSSSLLDHDRTVFQWLDQQAPSSVLYISFGSTSEVDEKDFLEIARGLVDSKQSFLWVVRPGFVKGSTWVEPLPDGFLGERGRIVKWVPQQEVLAHGAIGAFWTHSGWNSTLESVCEGVPMIFSDFGLDQPLNARYMSDVLKVGVYLENGWERGEIANAIRRVMVDEEGEYIRQNARVLKQKADVSLMKGGSSYESLESLVSYISSL | 19.9 | 9.4E+06 |
| UGT76G1var45: UGT76G1 variant, mutations V279I_D301N_S389E (protein, UniProt Q6VAB4 1-458, looked up, variant V279I D301N S389E) UDP-glycosyltransferase 76G1: MENKTETTVRRRRRIILFPVPFQGHINPILQLANVLYSKGFSITIFHTNFNKPKTSNYPHFTFRFILDNDPQDERISNLPTHGPLAGMRIPIINEHGADELRRELELLMLASEEDEEVSCLITDALWYFAQSVADSLNLRRLVLMTSSLFNFHAHVSLPQFDELGYLDPDDKTRLEEQASGFPMLKVKDIKSAYSNWQILKEILGKMIKQTKASSGVIWNSFKELEESELETVIREIPAPSFLIPLPKHLTASSSSLLDHDRTVFQWLDQQPPSSVLYISFGSTSEVDEKDFLEIARGLVNSKQSFLWVVRPGFVKGSTWVEPLPDGFLGERGRIVKWVPQQEVLAHGAIGAFWTHSGWNSTLESVCEGVPMIFSDFGLDQPLNARYMEDVLKVGVYLENGWERGEIANAIRRVMVDEEGEYIRQNARVLKQKADVSLMKGGSSYESLESLVSYISSL | 38.6 | 2.3E+07 |
